Source: patent publication US20150011730A1 (UNIVERSITY OF SOUTH CAROLINA, published 2015)
No end group written: not given here. Pyrazole N‑cap, 4‑chlorophenylpyrazole (R1 H, R2 Cl, R3 H, R4 CH3, W N, X N, Y C, Z C) = not defined here

Key:
Test in all cases: FP binding assay
[1] = target: T1, CDK4/cyclin D1 (as used in the binding assay) (UniProt P11802 1-303; P24385 1-295)
T1 construct: kept apart from the GST-tagged kinase-assay complex m2; also called CDK4/D1

[2] = target: CDK2/cyclin A (as used in the binding assay) (UniProt P24941 1-298; P20248 1-432)
[3] = target: T1, CDK4/cyclin D1 (as used in the binding …); remark: listed apart in the source

B1: SCCP 5765 (Pyrazole N-cap ligated to RLIF) (peptide)
peptide: {Pyrazole N‑cap, 4‑chlorophenylpyrazole (R1 H, R2 Cl, R3 H, R4 CH3, W N, X N, Y C, Z C)}-RLIF
modifications: reading uncertain; also: cap structure given only by scaffold parameters
notes: also called 4-chlorophenylpyrazole
- fold less active relative to the triazole N capping group [1]: ≥ 4 fold
- IC50 [2]: 33.7 µM
- IC50 [3]: 49 µM
